Source: patent publication US20250376498A1, “FUSION PROTEINS COMPRISING AN IMPROVED GLP-1 RECEPTOR AGONIST AND USES THEREOF” (Guangzhou Innogen Pharmaceutical Group Co., Ltd., priority 2022, published 2025)
Several values for one entry are separate records, joined by “and”; a condition that tells them apart may be missing. Identical values can stand only once.

Columns and labels:
NASH Rhesus monkeys = assay: NASH Rhesus monkeys, MRI-PDFF quantitative analysis of hepatic steatosis; assay type: in vivo; conditions: for percentage reduction of MRI-PDFF liver fat compared to baseline: end of the treatment; for Change rate (%) of liver lipid content: (current - baseline)/baseline
Description: The GE 3.0T MRI scanner (750W3T MRI, GE Healthcare) was used for liver imaging in this study. The IDEAL-IQ sequence was employed, which combines the IDEAL (Iterative Decomposition of water and fat with Echo Asymmetry and Least-squares estimation) technique with fast three-dimensional multi-echo imaging. This technique includes multi-echo water-fat separation, region-growing algorithm, as well as various imaging methods for tissue fat quantification and R2* relaxation rate. Six contrast images, including in-phase, opposed-phase, water-only, fat-only, fat fraction maps, and R2* maps, were acquired through a single breath-hold scan by collecting signals from six different echo time (TE) values. The images were reconstructed using computer algorithms to obtain the aforementioned contrast images. The IDEAL-IQ hybrid water-fat separation algorithm consisted of two steps. The first step involved complex domain reconstruction to obtain water and fat images, as well as the T2* map. The second step generated an additional set of estimated water and fat images. These two sets of images were then combined using a hybrid algorithm to generate the final water and fat images.
Prior to conducting the experiment, a Phantom test was performed. Five standard fat solutions with known fat content were prepared by modifying the body phantom preparation method used by Clare P. et al.. Pure water was used as 0% fat. Sodium dodecyl sulfate (60 mmol) was dissolved in 1 L of deionized water, heated to 50° C., and then 40 g of gelatin was added and mixed thoroughly. […] of the aforementioned solution, respectively, to prepare solutions with fat contents of 0%, 2.5%, 5%, 10%, 20%, and 100%. These solutions were filled into six 100 ml EP tubes for subsequent scanning procedures.
Phantom validation experiments were performed before each scan. All animals underwent a baseline scan and one additional scan after the completion of the drug administration, totaling two scans. The anesthesia procedure was as follows: intramuscular injection of 10 mg/kg ketamine hydrochloride, endotracheal intubation, and maintenance of anesthesia with isoflurane and oxygen using a ventilator. During the scanning process, veterinary monitoring of electrocardiogramad oxygenation, respiratory rate, etc., was performed, and veterinary supervision was provided until the animals fully recovered consciousness and resumed spontaneous respiration.
Image Post-processing and Analysis: The collected and stored Hepatic steatosis MRI images of Rhesus monkeys were analyzed using the 750W 3T MRI workstation. The liver MRI images were selected by choosing the planes with the maximum exposure of the right hepatic lobe area (layers 1-3), avoiding large blood vessels, bile ducts, and gallbladder to prevent volume effects. Regions of interest (ROI) were selected, with each ROI having an area of 90-110 mm^2. Hepatic steatosis was defined as MRI-PDFF % (Magnetic Resonance Imaging Proton Density Fat Fraction)>6% (consistent with clinical standards).
Fifteen Rhesus monkeys were divided into 3 groups, with 5 monkeys in each group. They received subcutaneous injections of 0 (solvent control, placebo control group), 0.050, or 0.150 mg/kg of YN-011 once a week for 13 weeks (QW). The 0.150 mg/kg YN-011 group received adaptive dosing (0.1 mg/kg for the first dose, followed by 0.150 mg/kg for the remaining 12 doses).

INS-1 cells = assay: Insulin secretion from INS-1 cells; assay type: cell-based
Method: Natural GLP-1 stimulates insulin secretion from beta cells in a glucose-dependent manner. […] INS-1 cells were serum-starved and glucose-starved, then treated with different amounts of purified YN-011 in the presence of 0, 5, or 20 mM glucose as indicated.

[1] = Determination of oxidation levels by LC-MS/MS; assay type: physicochemical
Method: Following the protein oxidation measurement method described in Example 2 or by referring to Bettinger et al., the oxidation levels were determined. It was observed that the GLP-1 fusion protein YN-011 of the present invention was not oxidized at position W31, whereas the oxidation level of […] at the same position exceeded 5%. The oxidation occurred at the location indicated by the rectangular box in the structure of W31.

B1: YN-011: GLP-1 fusion protein of SEQ ID NO: 7: GLP-1 (A8G, G22E, R36G), linker peptide and IgG2/Fc domain (C222S, A330S, P331S) (protein)
chain: HGEGTFTSDVSSYLEEQAAKEFIAWLVKGGGSSGAPPPSGGGGSERKSCVECPPCPAPPVAGPSVFLFPPKPKDTLMISRTPEVTCVVVDVSHEDPEVQFNWYVDGVEVHNAKTKPREEQFNSTFRVVSVLTVVHQDWLNGKEYKCKVSNKGLPSSIEKTISKTKGQPREPQVYTLPPSREEMTKNQVSLTCLVKGFYPSDIAVEWESNGQPENNYKTTPPMLDSDGSFFLYSKLTVDKSRWQQGNVFSCSVMHEALHNHYTQKSLSLSPG
For B1, the “percentage reduction of MRI-PDFF liver fat compared to baseline” value (NASH Rhesus monkeys; 50 μg/kg) was 43.8%, the “Average ROI Baseline (%) (liver lipid content, MRI-PDFF)” value (NASH Rhesus monkeys; 0.05 mg/kg group, 0.05 mg/kg) was 9.0%±0.9% and 9.0 ± 0.9% and the “Mean ROI at day 80 of dosing (%) (liver lipid content, MRI-PDFF)” value (NASH Rhesus monkeys; 0.05 mg/kg sc QW, 0.05 mg/kg) was 5.0%±0.2% and 5.0 ± 0.2** %. The “Change rate (%) of liver lipid content” value (NASH Rhesus monkeys; 0.05 mg/kg sc QW) was −43.8 ± 7.4 %, the “Average ROI Baseline (%) (liver lipid content, MRI-PDFF)” value (NASH Rhesus monkeys; 0.15 mg/kg group, 0.15 mg/kg) was 9.4%±1.5% and 9.4 ± 1.5% and the “Mean ROI at day 80 of dosing (%) (liver lipid content, MRI-PDFF)” value (NASH Rhesus monkeys; 0.15 mg/kg sc QW, 0.15 mg/kg) was 5.6%±1.5% and 5.6 ± 1.5** %. The “Change rate (%) of liver lipid content” value (NASH Rhesus monkeys; 0.15 mg/kg sc QW) was −39.7 ± 14.2 %, the “percentage reduction of MRI-PDFF liver fat compared to baseline” value (NASH Rhesus monkeys; 150 μg/kg) was 39.7% and the “decrease of liver lipid content compared to the placebo control group” value (NASH Rhesus monkeys; after 13 weeks of weekly treatment) was “approximately 40%”. The “insulin secretion from beta cells” value (INS-1 cells; absence of glucose) was “did not stimulate insulin secretion”, the “insulin secretion from beta cells” value (INS-1 cells; presence of 5 mM or 20 mM glucose) was “dose-dependently stimulated insulin secretion” and the “oxidation level at position W31” value [1] was “not oxidized”.
